We go through one molecule from patent publication US20190322746A1 (TESARO, published 2019).

The assay addresses T1, T Cell Immunoglobulin and Mucin Domain-3 (TIM-3) on circulating CD14+ monocytes of patients (human, UniProt Q8TDQ0 22-301).
T1 construct: whole, on cells; Endogenous receptor on peripheral blood monocytes of patients in a first-in-human study; also called HAVCR2; TIM-3 receptor
Briefly: flow cytometry receptor occupancy on circulating monocytes, whole blood of treated patients. A general note: In flow cytometry, cells or beads pass a laser one at a time.

Method: To measure binding in the RO assay, whole blood was collected from patients at baseline (Day 1 predose), 48 hours following the first dose (Day 3) and prior to the second dose (Day 15 predose) for the Q2W schedule. […] Samples for occupancy measurement on the Q3W schedule were collected as follows: Day 1 predose, Day 5, Day 15 and Day 22.
All samples were pre-dose, with occupancy measured after a single dose on day 1. The occupancy ratio (free TIM-3:total TIM-3) is determined at various time points (for example, timepoints can include day 1, day 3, day 15, day 22, and day 29).

B1: TSR-022 (antibody, human IgG4 S228P, kappa, V domains shown)
VH: EVQLLESGGGLVQPGGSLRLSCAAASGFTFSSYDMSWVRQAPGKGLDWVSTISGGGTYTYYQDSVKGRFTISRDNSKNTLYLQMNSLRAEDTAVYYCASMDYWGQGTTVTVSS
VL: DIQMTQSPSSLSASVGDRVTITCRASQSIRRYLNWYHQKPGKAPKLLIYGASTLQSGVPSRFSGSGSGTDFTLTISSLQPEDFAVYYCQQSHSAPLTFGGGTKVEIKR
notes: Humanized IgG4 (human IGHG4*01 scaffold) with a kappa light chain (IGKC*01); also called anti-TIM-3 antibody; exemplary anti-TIM-3 antibody
As for B1, the binding result was “binds”.
